Experimental data as given in the supplement of paper PMC10126150.
± gives the standard deviation of the averaged measurements.

What follows are sequences tested on ATP (assay: switch fluorescence ratio, 500 uM ATP over buffer (Cy3 cluster intensity, sum of 5 cycles each) (fold (ratio)); higher = stronger signal-on switching upon ATP binding; sequences stand for … in TCGTCGGCAGCGTCAGATGTGTATAAGAGACAGTTTTTTTTTTTTTTTTTTTTTTTTT…TC). Conditions: aptamer strand: ATP DNA aptamer (quencher-CACCTGGGGGAGTATTGCGGAGGAAGG + anchor), 100 nM annealed; ATP concentration: 500 uM.
Method in brief: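 Clusters carrying Cy3-labelled switching strands on a modified Illumina MiSeq flow-cell were annealed to 100 nM quencher-labelled ATP aptamer and imaged in selection buffer. They were imaged again after 15 min with 500 uM ATP at 22 °C, over five buffer/ATP cycles with NaOH stripping and re-annealing in between. For each cluster, the fluorescence ratio is the summed Cy3 intensity of the target cycles divided by that of the buffer cycles, averaged per switch-domain sequence. Clusters outside 100-1000 RFU were left out.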
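Also: ATP exposure 15 min at 22 °C before imaging.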

TTGAGGCCGG and GCAGGCGTCA are the same in switch fluorescence ratio: 1.038 ± 0.0038 for the first, 1.04 ± 0.015 for the second.

TAAACTGGGA and GGAGGTTTAA are within error of each other in switch fluorescence ratio: 1.004 ± 0.0093 for the first, 1.01 ± 0.024 for the second.

CCGTGGGGTA and AAGTTAATTT are within error of each other in switch fluorescence ratio: 0.974 ± 0.031 for the first, 0.998 ± 0.021 for the second.

Compared with CGAGGGATGT, CCCCCGTTCC is higher in switch fluorescence ratio: 0.982 ± 0.034 for the first, 1.72 ± 0.2 for the second.

Compared with AGGGCAGCGT, CATGAGGAGT is higher in switch fluorescence ratio: 1.004 ± 0.0041 for the first, 1.01 ± 0.0022 for the second.

TCTGTTGTG and TATCGGGGGG are within error of each other in switch fluorescence ratio: 1.03 ± 0.029 for the first, 0.996 ± 0.043 for the second.

GAGTAGGAAG and GAGGTTGCCG are within error of each other in switch fluorescence ratio: 0.961 ± 0.05 for the first, 0.951 ± 0.018 for the second.

GTGATTACTG and AAGCTAGGAG are within error of each other in switch fluorescence ratio: 0.97 ± 0.011 for the first, 0.999 ± 0.041 for the second.

GAAAAAATGG and AGCAAGGCGT are within error of each other in switch fluorescence ratio: 1.15 ± 0.26 for the first, 1.03 ± 0.043 for the second.

GGGAAAAATA and TTTGGCGGCG are within error of each other in switch fluorescence ratio: 1.24 ± 0.51 for the first, 0.993 ± 0.067 for the second.

GTCTGAACGG and ATTGGTATGA are within error of each other in switch fluorescence ratio: 0.9762 ± 0.0081 for the first, 0.994 ± 0.018 for the second.

Compared with TTTTGGGCCT, GTGGCATACT is higher in switch fluorescence ratio: 1.042 ± 0.0088 for the first, 1.12 ± 0.016 for the second.

GTCAGTGGGC and TTTTAATGTG are within error of each other in switch fluorescence ratio: 0.998 ± 0.0052 for the first, 1 ± 0.016 for the second.

AATATTACAT and ATAAGGCTAA are within error of each other in switch fluorescence ratio: 1.03 ± 0.034 for the first, 0.982 ± 0.016 for the second.

Compared with ATCCCAGGGT, TATAGTCTA is lower in switch fluorescence ratio: 1.89 ± 0.076 for the first, 1.01 ± 0.031 for the second.

ATAATCAAGG and TTTTGCTCAA are within error of each other in switch fluorescence ratio: 1.01 ± 0.032 for the first, 0.996 ± 0.011 for the second.

GTTTCAGGTA and GGAAGAAGAT are within error of each other in switch fluorescence ratio: 1.02 ± 0.029 for the first, 0.982 ± 0.033 for the second.

First: TATGCAGTTT
Second: ATTGTACAGG
The switch fluorescence ratio of the first is lower: 0.968 ± 0.026 for the first, 1.033 ± 0.0021 for the second.

ATTGGCTTT and GGCCGGCAGG are within error of each other in switch fluorescence ratio: 0.9788 ± 0.0025 for the first, 0.972 ± 0.024 for the second.

CTTGAGACGG and AGGAGCTGGT are within error of each other in switch fluorescence ratio: 1.01 ± 0.017 for the first, 1.02 ± 0.012 for the second.

Going from TCAGTTATCG to GCGGAATATG, the switch fluorescence ratio rises from 0.985 ± 0.014 to 1.13 ± 0.018.

AGATTGGACG and CGTTCGTTCG are within error of each other in switch fluorescence ratio: 1.02 ± 0.024 for the first, 0.989 ± 0.015 for the second.

ATCAAGTCTT and TTAGGATTAA are within error of each other in switch fluorescence ratio: 0.99 ± 0.016 for the first, 1.02 ± 0.063 for the second.

Going from TAAAAGGCAA to AGATGGGCAG, the switch fluorescence ratio falls from 1.14 ± 0.085 to 0.996 ± 0.012.

TAATTCGTCG and CATTTATTTG are within error of each other in switch fluorescence ratio: 0.997 ± 0.018 for the first, 1.01 ± 0.014 for the second.

GGTGTGGGGC and GTGAAAGTCG are within error of each other in switch fluorescence ratio: 1.01 ± 0.024 for the first, 0.9929 ± 0.0024 for the second.

CTCTGGGGCG and TGGTCTAGGT are the same in switch fluorescence ratio: 1.01 ± 0.023 for the first, 1.01 ± 0.028 for the second.

CGATATGGGG and TTATCGTCGG are within error of each other in switch fluorescence ratio: 1.01 ± 0.057 for the first, 0.978 ± 0.04 for the second.

GAGGGACTGG and TGGGGTTCTT are within error of each other in switch fluorescence ratio: 0.988 ± 0.084 for the first, 0.993 ± 0.034 for the second.

GTGTCGAAGG and GGCTGACGTC are within error of each other in switch fluorescence ratio: 0.976 ± 0.051 for the first, 1 ± 0.038 for the second.

TAAGGGGCGG and AAGAGGGGAG are within error of each other in switch fluorescence ratio: 0.989 ± 0.04 for the first, 1.01 ± 0.013 for the second.

Going from AGAAAGTTTG to CGAAAGCGGC, the switch fluorescence ratio rises from 1.01 ± 0.044 to 1.23 ± 0.014.

ATGGATTGGT and CTATTTTATT are within error of each other in switch fluorescence ratio: 0.984 ± 0.012 for the first, 1.01 ± 0.068 for the second.

ACTGGGTTGG and ATGTGGGAGG are within error of each other in switch fluorescence ratio: 0.9922 ± 0.0074 for the first, 1 ± 0.016 for the second.

ATTACGGGGG and GGATTTAGGC are within error of each other in switch fluorescence ratio: 1.01 ± 0.088 for the first, 0.977 ± 0.029 for the second.

Going from CCTCACAGTT to TCGGAAGGG, the switch fluorescence ratio falls from 1.24 ± 0.096 to 0.988 ± 0.037.

GAAGTAGCAG and GCGCTGGGGG are within error of each other in switch fluorescence ratio: 0.984 ± 0.025 for the first, 1.07 ± 0.081 for the second.

CCTTTGGTTA and TTATGAAATT are within error of each other in switch fluorescence ratio: 1.03 ± 0.028 for the first, 1.01 ± 0.04 for the second.

Compared with GGGTCACTGG, TGTAGTTTGA is higher in switch fluorescence ratio: 0.9765 ± 0.0056 for the first, 1 ± 0.012 for the second.

TATAGGGAAG and AATGTTCGTT are within error of each other in switch fluorescence ratio: 1.02 ± 0.026 for the first, 1.01 ± 0.014 for the second.

CGGGCAAGGT and TTAGAGACGC are within error of each other in switch fluorescence ratio: 1.038 ± 0.01 for the first, 1.06 ± 0.021 for the second.

First: TCGGCTTGGG
Second: CGTAGGATTT
The switch fluorescence ratio of the first is higher: 0.987 ± 0.02 for the first, 0.9554 ± 0.0048 for the second.

TTAGGTTGGT and GATAGTAAGG are within error of each other in switch fluorescence ratio: 1 ± 0.065 for the first, 0.9795 ± 0.0075 for the second.

TCTTAGGCGG and TATTTGGGAC are within error of each other in switch fluorescence ratio: 0.977 ± 0.039 for the first, 1.02 ± 0.025 for the second.

First: ACCGATGCAC
Second: AATCAAATTA
The switch fluorescence ratio of the first is higher: 4.12 ± 1.2 for the first, 0.985 ± 0.025 for the second.

Going from GGTTGGTTGG to GGAGTCGACG, the switch fluorescence ratio rises from 0.9769 ± 0.0012 to 1.02 ± 0.012.

First: AGGGTCTAGA
Second: AGTAATATTT
The switch fluorescence ratio of the first is lower: 0.978 ± 0.023 for the first, 1.03 ± 0.0061 for the second.

Compared with GGTTGCGTTT, ACTTGGGTAG is lower in switch fluorescence ratio: 0.9997 ± 0.001 for the first, 0.9928 ± 0.0011 for the second.

AGCTTTGTC and GCTGGTACAG are within error of each other in switch fluorescence ratio: 0.989 ± 0.043 for the first, 1 ± 0.022 for the second.

ATGTAGTGGC and TCGCGTCTCA are within error of each other in switch fluorescence ratio: 0.995 ± 0.049 for the first, 1.01 ± 0.046 for the second.
